“Also recorded” adds a separate entry of the source.
What was measured:
[1] = system: RSV; experiment: Virus challenge: viable virus in lung homogenates on Hep-2 monolayers; assay type: in vivo, Mice; settings: single IN dose ~2.25 mg/Kg (15% of dose) 3 hours after infection with 1.3×10^5 PFU, 100 ul per well
Method: Mice were challenged with 1.3×10^5 plaque forming units. Three hours after infection a test group was treated with a single dose of Palivizumab IN (˜2.25 mg/Kg) and a control group received saline. Three days after infection, lung tissue was collected and homogenized. The subsequent homogenates were dispensed onto Hep-2 monolayers and the cultures were monitored for evidence of viable virus. The total homogenate volume recovered from each animal was approximately 1.5 to 2 mls and the amount placed in each test well was 100 ul.

[2] = system: RSV; experiment: Synagis plaque assay in vitro; assay type: cell-based; settings: FIG. 8
[3] = system: B 16F10 melanoma cells; experiment: Effects of routes of IL-12 delivery (ID, SC, IP) on tumor growth, 100 ng dose; assay type: in vivo, C57BL/6J mice
Method: (§1) C57BL/6J mice (Charles Rivers Labs, Inc) were inoculated SC with 1×10^6 B 16F10 melanoma cells (ATCC) on the upper right flank. One week following tumor inoculation (Day 7), the mice were randomized and treated with 100 ng rmIL-12 (R&D Systems) in 50 μL PBS solution through either ID or SC injections near tumor inoculation site, or an IP injection (n=25/condition). An additional condition of ID controls was run using 50 μL PBS solution alone. ID treatment was administered with a 34G, 1 mm needle using a modified mantoux method. SC and IP doses were given with standard 25G×¾″ needle. Treatment was continued every other day through Day 13 for a total of four doses. Tumor measurements in mm^2 (length×width) were collected on Days 7, 11, 14, 18, 21, 25 and 28. Blood samples were collected on Days 0, 14, 21 and 28 for IL-12 and IFN-gamma analysis. Draining lymph node and spleen tissue samples were collected from five animals in each condition on Days 14 and 24 for FACS analysis of CD49b (NK) cells. Mortality data were collected on 10 pre-selected animals that were not used for blood sampling or FACS analysis from each condition. Mortality was determined through either natural death or euthanasia due to tumor size of greater than 400 mm^2. Statistical data were calculated using a t-Test: Two-Sample Assuming Unequal Variances. See, e.g., Brunda, M., J. Exp. Med., 178: 1223-1230 (1993) and Leonard et al., Blood, 90: 2541-2548 (1997), both of which are incorporated herein by reference.

[4] = system: B16F10 melanoma cells; experiment: Effects of site of ID delivery (tumor side vs contralateral side) on antitumor activity of IL-12; assay type: in vivo, C57BL Mice
Method: C57BL Mice were inoculated subcutaneously (SC) with 1 million B16F10 melanoma cells (ATCC, Inc.). Treatment was initiated with IL-12 injections 7 days post-inoculation at 100 ng given as an ID dose on the tumor bearing or contralateral side dose. IL-12 doses were repeated every other day for a total of 4 treatments. As a control, the same volume of complete medium (PBS) was injected ID on the tumor bearing side. True negatives were also run in conjunction for serum and tissue samples (n=15/condition). Weights and tumor size were measured on days 7, 11, 14, 18 and 21. Blood samples were also collected at weekly intervals for IL-12 analysis. Draining lymph node and spleen samples were collected at 14 and 24 days for T cell, B cell and NK cell, and GP100 FACS analysis was performed. Two tumor diameters at right angles were measured with digital calipers, and the average tumor size was plotted with respect to days post inoculation with tumor cells.

[5] = system: CD49b (NK) cells; experiment: NK cells count in draining lymph node by FACS analysis; assay type: in vivo, C57BL/6J mice; settings: ID delivery vs other conditions
Method: C57BL/6J mice (Charles Rivers Labs, Inc) were inoculated SC with 1×10^6 B 16F10 melanoma cells (ATCC) on the upper right flank. One week following tumor inoculation (Day 7), the mice were randomized and treated with 100 ng rmIL-12 (R&D Systems) in 50 μL PBS solution through either ID or SC injections near tumor inoculation site, or an IP injection (n=25/condition). An additional condition of ID controls was run using 50 μL PBS solution alone. ID treatment was administered with a 34G, 1 mm needle using a modified mantoux method. SC and IP doses were given with standard 25G×¾″ needle. Treatment was continued every other day through Day 13 for a total of four doses. […] Mortality was determined through either natural death or euthanasia due to tumor size of greater than 400 mm^2. Statistical data were calculated using a t-Test: Two-Sample Assuming Unequal Variances. […]
The right side superficial inguinal draining lymph node (DLN) and the spleen were excised individually from 5 mice per each treatment group into Petri dishes containing cold HBSS (Invitrogen Life Technologies, Carlsbad, Calif.) for the DLN. […] The washed cells were resuspended in 1 ml of cold FacsFlow buffer and kept on ice in the dark until analyzed by flow cytometry using a FACS Vantage SE. Cell analysis was designed to exclude B cells and quantify CD4+ cells, CD8+ cells, and CD49b+ (NK cells). […]

[6] = system: B16F10 melanoma cells; experiment: Effects of ID and IP delivery on antitumor activity of IL-12 (10 and 100 ng), tumor size; assay type: in vivo, C57BL Mice; settings: for tumor size increase: by day 21
Method: C57BL Mice were inoculated subcutaneously (SC) with 1 million B16F10 melanoma cells (ATCC, Inc.). Treatment was initiated with IL-12 injections 7 days post-inoculation at two levels (10 and 100 ng) given as either an intraperitoneal (IP) or intradermal (ID) (tumor bearing side) dose. IL-12 doses were repeated every other day for a total of 4 treatments. As a control, the same volume of complete medium (PBS) was injected ID on the tumor bearing side. True negatives were also run in conjunction for serum and tissue samples (n=15/condition). Weights and tumor size were measured on days 7, 11, 14, 18 and 21. Blood samples were also collected at weekly intervals for IL-12 analysis. Two tumor diameters at right angles were measured with digital calipers, and the average tumor size was plotted with respect to days post inoculation with tumor cells.

[7] = system: B 16F10 melanoma cells; experiment: Effects of routes of IL-12 administration on mortality of tumor-containing mice; assay type: in vivo, C57BL/6J mice; settings: Day 28
Method: as §1

**Q.** Which “peak lung antibody concentration relative to any other delivery route” value (IN 100 μl group, 15 mg/kg) does the source give for “Palivizumab: RSV Specific MAB (Palivizumab), Synagis, humanized antibody” here?
**A.** at least 2 times

**Q.** And the “persistence of IN-delivered antibody in lung” value (IN delivery)?
**A.** short lived

**Q.** And the “Lung Tissue Collected @ 72 Hours Post Infection (assayed straight), PFU” value [1]?
**A.** no plaque forming units were observed; also recorded: No PFU Observed

**Q.** And the “concentration of antibody capable of blocking high numbers of virus” value [2]?
**A.** 6 µg/mL

B1: IL-12: rmIL-12 (R&D Systems), interleukin-12 cytokine given in PBS solution (protein, UniProt P43431 23-215; P43432 23-335, looked up)
Interleukin-12 subunit alpha: RVIPVSGPARCLSQSRNLLKTTDDMVKTAREKLKHYSCTAEDIDHEDITRDQTSTLKTCLPLELHKNESCLATRETSSTTRGSCLPPQKTSLMMTLCLGSIYEDLKMYQTEFQAINAALQNHNHQQIILDKGMLVAIDELMQSLNHNGETLRQKPPVGEADPYRVKMKLCILLHAFSTRVVTINRVMGYLSSA
Interleukin-12 subunit beta: MWELEKDVYVVEVDWTPDAPGETVNLTCDTPEEDDITWTSDQRHGVIGSGKTLTITVKEFLDAGQYTCHKGGETLSHSHLLLHKKENGIWSTEILKNFKNKTFLKCEAPNYSGRFTCSWLVQRNMDLKFNIKSSSSSPDSRAVTCGMASLSAEKVTLDQRDYEKYSVSCQEDVTCPTAEETLPIELALEARQQNKYENYSTSFFIRDIIKPDPPKNLQMKPLKNSQVEVSWEYPDSWSTPHSYFSLKFFVRIQRKKEKMKETEEGCNQKGAFLVEKTSTEVQCKGGNVCVQAQDRYYNSSCSKWACVPCRVRS
**Q.** With B1 as the molecule, how does the “Mean (tumor measurement, length x width)” value ([3]; Day 18, ID 100 ng) read?
**A.** 62.29 mm^2

**Q.** What about the “Mean (tumor measurement, length x width)” value ([3]; Day 18, IP 100 ng) of the same molecule?
**A.** 158.2458 mm^2

**Q.** What about the “Mean (tumor measurement, length x width)” value ([3]; Day 18, SC 100 ng) of the same molecule?
**A.** 199.7379 mm^2

**Q.** And the “Mean (tumor measurement, length x width)” value ([3]; Day 28, ID 100 ng)?
**A.** 127.2 mm^2

**Q.** What about the “Mean (tumor measurement, length x width)” value ([3]; Day 28, IP 100 ng) of the same molecule?
**A.** 383.7 mm^2

**Q.** And the “Mean (tumor measurement, length x width)” value ([3]; Day 28, SC 100 ng)?
**A.** 352.9 mm^2

**Q.** What about the “inhibition of tumor growth” value ([3]; ID delivery, 100 ng, only route with effect (FIG. 1)) of the same molecule?
**A.** significant effects on inhibiting the tumor growth

**Q.** And the “effectiveness relative to other conditions” value ([4]; 100 ng ID contralateral side)?
**A.** not as effective as those dosed near the tumor, but were better than the IP condition

**Q.** What about the tumor size ([4]; 100 ng ID contralateral side (IDcs), Day 14) of the same molecule?
**A.** 75 mm^2

**Q.** And the “overall tumor growth reduction” value ([4]; 100 ng ID near the tumor injection site)?
**A.** greatest reduction in overall tumor growth

**Q.** What about the tumor size ([4]; 100 ng ID tumor side (IDts), Day 14) of the same molecule?
**A.** 75 mm^2

**Q.** What about the tumor size increase ([4]; 100 ng IDcs, Day 14 to Day 18) of the same molecule?
**A.** 91%

**Q.** And the tumor size ([4]; 100 ng IDcs, Day 18)?
**A.** 43 mm^2

**Q.** What about the tumor size increase ([4]; 100 ng IDcs, Day 18 to Day 21) of the same molecule?
**A.** 29%

**Q.** And the tumor size increase ([4]; 100 ng IDts, Day 14 to Day 18)?
**A.** 68%

**Q.** What about the tumor size ([4]; 100 ng IDts, Day 18) of the same molecule?
**A.** 126 mm^2

**Q.** And the tumor size increase ([4]; 100 ng IDts, Day 18 to Day 21)?
**A.** 14%

**Q.** What about the tumor size ([4]; 100 ng IDts, Day 21) of the same molecule?
**A.** 142 mm^2

**Q.** And the “final tumor size for IDts smaller than IDcs” value ([4]; 100 ng, Day 21)?
**A.** 23%

**Q.** And the “NK cells in DLN” value ([5]; Day 14 (one day post regimen))?
**A.** increase in NK cells is apparent

**Q.** And the “NK cells in DLN” value ([5]; Day 24)?
**A.** relative increase above the other conditions

**Q.** What about the average tumor size ([6]; 10 ng, ID, Day 11) of the same molecule?
**A.** 77 mm^2

**Q.** What about the average tumor size ([6]; 10 ng, ID, Day 14) of the same molecule?
**A.** 120 mm^2

**Q.** And the “tumor size increase from the previous measurement” value ([6]; 10 ng, ID, Day 14)?
**A.** 56%

**Q.** What about the average tumor size ([6]; 10 ng, ID, Day 18) of the same molecule?
**A.** 112 mm^2

**Q.** What about the “tumor size decrease from the previous measurement” value ([6]; 10 ng, ID, Day 18) of the same molecule?
**A.** 6%

**Q.** And the average tumor size ([6]; 10 ng, ID, Day 21)?
**A.** 250 mm^2

**Q.** And the “tumor size increase from the previous measurement” value ([6]; 10 ng, ID, Day 21)?
**A.** 121%

**Q.** And the average tumor size ([6]; 10 ng, IP, Day 11)?
**A.** 68 mm^2

**Q.** And the average tumor size ([6]; 10 ng, IP, Day 14)?
**A.** 113 mm^2

**Q.** And the “tumor size increase from the previous measurement” value ([6]; 10 ng, IP, Day 14)?
**A.** 63%

**Q.** What about the average tumor size ([6]; 10 ng, IP, Day 18) of the same molecule?
**A.** 206 mm^2

**Q.** What about the “tumor size increase from the previous measurement” value ([6]; 10 ng, IP, Day 18) of the same molecule?
**A.** 82%

**Q.** And the average tumor size ([6]; 10 ng, IP, Day 21)?
**A.** 262 mm^2

**Q.** What about the “tumor size increase from the previous measurement” value ([6]; 10 ng, IP, Day 21) of the same molecule?
**A.** 27%

**Q.** What about the “final average ID tumor size smaller than IP” value ([6]; 100 ng, Day 21) of the same molecule?
**A.** 47%

**Q.** And the average tumor size ([6]; 100 ng, ID, Day 11)?
**A.** 54 mm^2

**Q.** What about the average tumor size ([6]; 100 ng, ID, Day 14) of the same molecule?
**A.** 75 nm^2

**Q.** And the “tumor size increase from the previous measurement” value ([6]; 100 ng, ID, Day 14)?
**A.** 39%

**Q.** What about the average tumor size ([6]; 100 ng, ID, Day 21) of the same molecule?
**A.** 142 mm^2

**Q.** What about the tumor size increase ([6]; 100 ng, ID) of the same molecule?
**A.** 89%

**Q.** And the average tumor size ([6]; 100 ng, IP, Day 11)?
**A.** 70 mm^2

**Q.** And the average tumor size ([6]; 100 ng, IP, Day 14)?
**A.** 126 mm^2

**Q.** What about the “tumor size increase from the previous measurement” value ([6]; 100 ng, IP, Day 14) of the same molecule?
**A.** 80%

**Q.** And the average tumor size ([6]; 100 ng, IP, Day 21)?
**A.** 302 mm^2

**Q.** What about the tumor size increase ([6]; 100 ng, IP) of the same molecule?
**A.** 139%

**Q.** And the “survivability compared to delivery through other routes or control” value ([7]; ID delivery)?
**A.** greater than 200%

**Q.** And the surviving animals ([7]; ID delivery 100 ng)?
**A.** 7 out of 10

**Q.** What about the surviving animals ([7]; IP delivery 100 ng) of the same molecule?
**A.** 3 out of 10

**Q.** And the surviving animals ([7]; SC delivery 100 ng)?
**A.** 3 out of 10

Reference: patent US20050180952A1, “Methods for intradermal delivery of therapeutics agents” (priority 2003, published 2005)
